Measured values: US20110009311A1 (US Dept. of Health and Human Services, published 2011)
Where no end group is shown, it is not given here.

B1: MBP-invasin fusion protein (ligand)
chain: AVIGDGAPANGKTAITVEFTVADFEGKPLAGQEVVITTNNGALPNKITEKTDANGVARIALTNTTDGVTVVTAEVEGQRQSVDTHFVKGTIAADKSTLAAVPTSIIADGLMASTITLELKDTYGDPQAGANVAFDTTLGNMGVITDHNDGTYSAPLTSTTLGVATVTVKVDGAAFSVPSVTVNFTADPIPDAGRSSFTVSTPDILADGTMSSTLSFVPVDKNGHFISGMQGLSFTQNGVPVSISPITEQPDSYTATVVGNTAGDVTITPQVDTLILSTLQKKISLFPVPTLTGILVNGQNFATDKGFPKTIFKNATFQLQMDNDVANNTQYEWSSSFTPNVSVNDQGQVTITYQTYSEVAVTAKSKKFPSYSVSYRFYPNRWIYDGGTSLVSSLEASRQCQGSDMSAVLESSRATNGTRAPDGTLWGEWGSLTAYSSDWQSGEYWVKKTSTDFETMNMDTGALVQGPAYLAFPLCALAI
B2: thrombospondin-1 (TSP1), calcium replete, purified from human platelets (ligand)
chain: not shown

These binders were tested against T1, α3β1 integrin (endogenous on human cells: MDA-MB-435 breast carcinoma, HUVEC, HDME, OH-1 SCLC) (human, UniProt P26006 33-1051; P05556 21-798) (assay: cell-based or functional assay).
T1 sequence (P26006 33-1051, chain 1 of 2): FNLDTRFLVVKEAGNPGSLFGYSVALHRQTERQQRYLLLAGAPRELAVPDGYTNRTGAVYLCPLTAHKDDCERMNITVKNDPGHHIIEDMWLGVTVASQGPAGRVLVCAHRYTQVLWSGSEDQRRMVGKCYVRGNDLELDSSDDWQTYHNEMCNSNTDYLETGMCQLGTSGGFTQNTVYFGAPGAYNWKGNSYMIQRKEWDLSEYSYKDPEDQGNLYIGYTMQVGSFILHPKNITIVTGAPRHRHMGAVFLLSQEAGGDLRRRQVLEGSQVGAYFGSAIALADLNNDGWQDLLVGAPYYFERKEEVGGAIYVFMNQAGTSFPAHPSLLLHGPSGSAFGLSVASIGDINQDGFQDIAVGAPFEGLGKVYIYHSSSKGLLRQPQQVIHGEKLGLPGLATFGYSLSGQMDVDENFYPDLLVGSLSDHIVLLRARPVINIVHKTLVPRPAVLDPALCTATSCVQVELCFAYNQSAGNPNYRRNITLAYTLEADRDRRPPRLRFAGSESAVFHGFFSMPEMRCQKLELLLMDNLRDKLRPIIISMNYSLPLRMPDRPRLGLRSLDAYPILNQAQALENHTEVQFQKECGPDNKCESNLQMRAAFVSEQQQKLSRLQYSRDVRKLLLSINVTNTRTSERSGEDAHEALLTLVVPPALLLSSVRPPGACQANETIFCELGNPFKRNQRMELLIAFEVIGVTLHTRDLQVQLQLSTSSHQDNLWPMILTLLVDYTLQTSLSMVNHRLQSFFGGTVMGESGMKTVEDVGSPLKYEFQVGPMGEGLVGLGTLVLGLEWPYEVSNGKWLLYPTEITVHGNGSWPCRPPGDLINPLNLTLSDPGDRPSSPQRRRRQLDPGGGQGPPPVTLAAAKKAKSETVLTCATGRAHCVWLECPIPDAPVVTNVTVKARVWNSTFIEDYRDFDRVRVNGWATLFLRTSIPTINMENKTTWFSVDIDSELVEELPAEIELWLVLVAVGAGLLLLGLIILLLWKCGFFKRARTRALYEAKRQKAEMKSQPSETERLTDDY
T1 sequence (P05556 21-798, chain 2 of 2): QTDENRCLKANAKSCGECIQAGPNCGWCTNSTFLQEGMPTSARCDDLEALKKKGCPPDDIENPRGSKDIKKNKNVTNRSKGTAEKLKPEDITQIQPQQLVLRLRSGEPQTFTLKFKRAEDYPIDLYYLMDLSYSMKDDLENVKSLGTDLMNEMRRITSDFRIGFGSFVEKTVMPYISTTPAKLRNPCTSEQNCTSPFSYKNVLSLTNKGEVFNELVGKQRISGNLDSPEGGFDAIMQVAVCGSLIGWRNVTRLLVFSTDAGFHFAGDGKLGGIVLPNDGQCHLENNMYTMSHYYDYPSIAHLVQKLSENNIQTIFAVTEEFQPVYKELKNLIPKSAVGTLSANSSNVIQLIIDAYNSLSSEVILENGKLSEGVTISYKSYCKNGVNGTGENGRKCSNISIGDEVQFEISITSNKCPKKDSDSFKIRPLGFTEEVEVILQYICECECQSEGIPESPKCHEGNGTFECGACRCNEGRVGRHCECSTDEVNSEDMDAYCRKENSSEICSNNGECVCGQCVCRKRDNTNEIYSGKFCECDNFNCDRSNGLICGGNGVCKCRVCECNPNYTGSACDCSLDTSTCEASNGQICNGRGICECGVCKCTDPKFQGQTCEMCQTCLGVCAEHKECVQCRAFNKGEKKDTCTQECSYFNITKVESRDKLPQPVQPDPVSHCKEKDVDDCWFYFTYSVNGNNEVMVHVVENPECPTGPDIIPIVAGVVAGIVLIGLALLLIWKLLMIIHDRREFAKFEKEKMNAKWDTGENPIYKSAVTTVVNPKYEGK
In the case of FQGVLQDVRFVF [peptide 718], the “IC50, inhibition of MDA-MB-435 cell adhesion to immobilized peptide 678 (hexosaminidase method)” value (“IC50, inhibition … (hexosaminidase method)” below) is reported as 12 µM. FQGVLQNLRFVF [peptide 719] was tested, and the “IC50, inhibition … (hexosaminidase method)” value was 16 µM. In the case of Ac-QGVLQNVRF [peptide 704], the “IC50, inhibition … (hexosaminidase method)” value is reported as ~100 µM and the “IC50, inhibition of MDA-MB-435 cell adhesion to immobilized peptide 678 (microscopic adhesion assay)” value (“IC50, inhibition … (microscopic adhesion assay)” below) is reported as 15 µM. In the case of FRGCVRNLRLSR [laminin peptide 679], the “IC50, inhibition … (hexosaminidase method)” value is reported as 700 µM. QGVLQNVRFVF [peptide 685] was tested, and the “IC50, inhibition … (microscopic adhesion assay)” value was 24 µM. With FQGVLQNVRFVA [peptide 693] the “IC50, inhibition … (microscopic adhesion assay)” value was 27 µM. For AQGVLQNVRFVF [peptide 697], the “IC50, inhibition … (microscopic adhesion assay)” value was 5 µM. In the case of FQGVLQNVRFVF [TSP1 peptide 678], the “IC50, inhibition … (hexosaminidase method)” value is reported as 15 µM and the “IC50, inhibition … (microscopic adhesion assay)” value is reported as 3.5 µM. For FQGVLQNVAFVF (also called control peptide 690) [peptide 690], the “IC50, inhibition … (microscopic adhesion assay)” value was > 300 µM. In the case of FQGVLQNVKFVF [peptide 702], the “IC50, inhibition … (hexosaminidase method)” value is reported as 25 µM and the “IC50, inhibition … (microscopic adhesion assay)” value is reported as 6 µM. In the case of FQGVLQNVRAVF [peptide 692], the “IC50, inhibition … (microscopic adhesion assay)” value is reported as 18 µM. For QGVLQNVR [peptide 683], the “IC50, inhibition … (microscopic adhesion assay)” value was > 300 µM. FQGVLQNVRF [peptide 682] was tested, and the “IC50, inhibition … (microscopic adhesion assay)” value was 6 µM. For FQGVLQQVRFVF [peptide 717], the “IC50, inhibition … (hexosaminidase method)” value was 30 µM. With FQGVLQNVHFVF [peptide 694] the “IC50, inhibition … (microscopic adhesion assay)” value was 54 µM. For FQGVAQNVRFVF [peptide 695], the “IC50, inhibition … (microscopic adhesion assay)” value was 5 µM. With FQGVLANVRFVF [peptide 687] the “IC50, inhibition … (microscopic adhesion assay)” value was 3 µM. With LQNVRFVF [peptide 684] the “IC50, inhibition … (microscopic adhesion assay)” value was 300 µM. For TPGQVRTLWHDP (also called (part of C6)) [TSP1 peptide 701], the “IC50, inhibition … (microscopic adhesion assay)” value was > 300 µM. For FQGVLQSVRFVF [peptide 705], the “IC50, inhibition … (hexosaminidase method)” value was 15 µM. With Ac-LQNVRF-NH2 [peptide 681] the “IC50, inhibition … (microscopic adhesion assay)” value was 500 µM. FQGVLNNVRFVF [peptide 698] was tested, and the “IC50, inhibition … (microscopic adhesion assay)” value was 3 µM. With FAGVLQNVRFVF [peptide 696] the “IC50, inhibition … (hexosaminidase method)” value was 12 µM and the “IC50, inhibition … (microscopic adhesion assay)” value was 1.8 µM. VLQNVRFVF [peptide 688] was tested, and the “IC50, inhibition … (microscopic adhesion assay)” value was > 100 µM.

Biological target: T1, α3β1 integrin (endogenous on human …)
Assay: cell-based or functional assay
Remark: another data set of the same source
For KQNCLSSRASFRGCVRNLRLSR [murine laminin-1 peptide GD6], the “IC50, inhibition of MDA-MB-435 cell adhesion to peptide 678, GD6 or TSP1 by the soluble laminin peptide (data not shown)” value was 700 µM. In the case of FQGVLQNVRFVF [TSP1 peptide 678], the “IC50, inhibition of OH-1 SCLC cell proliferation by soluble peptide” value is reported as 6 µM. B1 was tested, and the “IC50, inhibition of OH-1 SCLC cell proliferation by soluble protein” value was 0.08 µM. For B2, the “IC50, inhibition of OH-1 SCLC cell proliferation by soluble protein” value was 0.04 µM.

These binders were tested against T1, α3β1 integrin (endogenous on human …) (assay: MDA-MB-435 cell adhesion and inhibition of adhesion (FIG. 3A and results not shown)).
TPGQVRTLWHDP (also called (part of C6)) [TSP1 peptide 701]: no binding.

The binders below were run against T1, α3β1 integrin (endogenous on human …) (assay: direct MDA-MB-435 cell adhesion to adsorbed peptide (FIG. 8)).
FQGVLQNVAFVF (also called control peptide 690) [peptide 690]: no binding (tested: adsorbed at 10 µM).

Biological target: T1, α3β1 integrin (endogenous on human …)
Assay: cell-based or functional assay
Remark: another data set of the same source
For FQGVLQNVRFVA [peptide 693], the “IC50 (µM), inhibition of MDA-MB-435 cell adhesion to immobilized peptide 678” value (“IC50 (µM), inhibition” for short) was 27 µM. With AQGVLQNVRFVF [peptide 697] the “IC50 (µM), inhibition” value was 5 µM. With FQGVLQNVRFVF [TSP1 peptide 678] the “IC50 (µM), inhibition” value was 3.5 µM. In the case of FQGVLQNVAFVF (also called control peptide 690) [peptide 690], the “IC50 (µM), inhibition” value is reported as > 300 µM. FQGVLQNVKFVF [peptide 702] was tested, and the “IC50 (µM), inhibition” value was 6 µM. FQGVLQNVRAVF [peptide 692] was tested, and the “IC50 (µM), inhibition” value was 18 µM. In the case of FQGVLQNVHFVF [peptide 694], the “IC50 (µM), inhibition” value is reported as 54 µM. In the case of FQGVAQNVRFVF [peptide 695], the “IC50 (µM), inhibition” value is reported as 5 µM. For FQGVLANVRFVF [peptide 687], the “IC50 (µM), inhibition” value was 3 µM. With FAGVLQNVRFVF [peptide 696] the “IC50 (µM), inhibition” value was 1.8 µM.

What follows are binders tested against T1, α3β1 integrin (endogenous on human …) (assay: soluble peptide, inhibition of MDA-MB-435 cell adhesion to immobilized peptide 678).
QGVLQNVR [peptide 683]: no binding (tested: >300 µM).
